Assay results: US20200405759A1 (UCL BUSINESS, published 2020)

Biological target: T1, human ROR1-Fz domain with Q(261)H and I(254)V (human, UniProt Q01973 165-299)
T1 construct: domain: Fz; it is not clear whether the construct was Fz only or a longer ROR1
Assay: antibody binding to point mutants of human ROR1, FIG. 7

T1 sequence (Q01973 165-299 I254V/Q261H): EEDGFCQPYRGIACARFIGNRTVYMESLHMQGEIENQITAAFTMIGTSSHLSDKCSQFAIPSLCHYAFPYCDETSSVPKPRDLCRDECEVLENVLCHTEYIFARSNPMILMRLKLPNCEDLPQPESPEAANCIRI

B1: Clone F anti-ROR1 antibody (whole immunoglobulin) (antibody, V domains shown)
VH: EVQLVESGGGLVQPGRSLKLSCAASGFIFSEHNMAWVRQAPKKGLEWVATISDDGRNTYYRDSMRGRFTISRENARSTLYLQLDSLRSEDTATYYCASHRYNLFDSWGQGVMVTVSS
VL: DIQMTQSPSFLSASVGDRVTINCKASQNIDRYLNWYQQKLGEAPKRLLYNTNKLQTGIPSRFSGSGSATDFTLTISSLQPEDFATYFCLQYNSLPLTFGSGTKLEIK
notes: Rat variable domains; also called clone F antibody
binding result: no binding
